The values below come from patent publication US20250320465A1 (FLAGSHIP PIONEERING INNOVATIONS V, published 2025).

The data set deals with the molecule itself. Kind of data set: structure of the VLP (self-assembly).

B1: Ring10-ORF1delCterm Helix (Ring10 ORF1 with a deletion of the C-terminus amino acids 610-672) VLP from Expi293 cells (other)
chain: MPWWYRRRSYNPWRRRNWFRRPRKTIYRRYRRRRRWVRRKPFYKRKIKRLNIVEWQPKSIRKCRIKGMLCLFQTTEDRLSYNFDMYEESIIPEKLPGGGGFSIKNISLYALYQEHIHAHNIFTHTNTDRPLARYTGCSLKFYQSKDIDYVVTYSTSLPLRSSMGMYNSMQPSIHLMQQNKLIVPSKQTQKRRKPYIKKHISPPTQMKSQWYFQHNIANIPLLMIRTTALTLDNYYIGSRQLSTNVTIHTLNTTYIQNRDWGDRNKTYYCQTLGTQRYFLYGTHSTAQNINDIKLQELIPLTNTQDYVQGFDWTEKDKHNITTYKEFLTKGAGNPFHAEWITAQNPVIHTANSPTQIEQIYTASTTTFQNKKLTDLPTPGYIFITPTVSLRYNPYKDLAERNKCYFVRSKINAHGWDPEQHQELINSDLPQWLLLFGYPDYIKRTQNFALVDTNYILVDHCPYTNPEKTPFIPLSTSFIEGRSPYSPSDTHEPDEEDQNRWYPCYQYQQESINSICLSGPGTPKIPKGITAEAKVKYSFNFKWGGDLPPMSTITNPTDQPTYVVPNNFNETTSLQNPTTRPEHFLYSFDERRGQLTEKATKRLLKDWETK
notes: also called Ring10-ORF1 delCterm-Helix (Δ610-672) (7052)
Take B1: the binding result is “binds”.
